Test results reported in the nanobody polyreactivity screen of Harvey et al. (2022).

Test: yeast display, Sf9 membrane polyspecificity reagent, FACS + sequencing; frameworks hold sequencing errors
How it was run: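 Nanobodies from a synthetic yeast display library (Saccharomyces cerevisiae BJ5465), induced 36–48 hours with galactose, were stained 1 hour at 4 °C with 10% biotinylated, detergent-solubilized Sf9 membrane reagent, enriched on streptavidin microbeads, then FACS-sorted. Anti-HA (expression) and streptavidin (reagent binding) fluorescence set low and high (top ~1%) gates. Polyreactivity labels come from the gate of origin. Genes were colony-PCR amplified, MiSeq 2 × 250 sequenced and filtered by CDR length.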
In the case of “QVLLQESGGGLVQAGGSLRLGCAASGTISPAYYMGRNHQAPGKEREFVAAITYGTNTYYADSVKGRFTISRDNAKNTVYLQMNSLKPEDTAVYYCSATAGYNGAHDYWGQGTQVTVSS”, the “polyreactivity (PSR sort gate)” value is reported as “low polyreactivity”. For “QVLLQESGGGLVQAGGSLRLGCAASGTISPAYYMGRSLQAPGKEREFVAAITYGTNTYYADSVKGRFTISRDNAKNTVYLQMNSLKPEDTAVYYCSATAGYNGAHDYWGQATQVTVSS”, the “polyreactivity (PSR sort gate)” value was “low polyreactivity”. With “QVLLQESGGGLVQAGGSLRLGCAASGTISPAYYMGRYHQAPGQEREFVAAITYGTNTYYADSVKGRFTISRDNAKNTVYLQMNSLKPEDTAVYYCSATAGYNGAHDYWGQGTQVTVSS” the “polyreactivity (PSR sort gate)” value was “low polyreactivity”. With “QVLLQESGGGLVQAGGSLRLSCAASGNIFSAGGMGWYRQAPVNERELVAGIGTGTSTNYADRVKGRFTISRDNAKNTVYLQMNSLKPEDTAVDYCAAAYYSGLSHWYWGQGTQVTVSS” the “polyreactivity (PSR sort gate)” value was “low polyreactivity”. With “QVLLQESGGGLVQAGGSLRLSCAASGTISTDIRMGWYRLAPGKEREFVASIDGCSTTYYADSVKGRFTISRDNAKNTVYLQMNSLKPEDTAMYYCSAREATEFYLFYWGQGTQVTVSS” the “polyreactivity (PSR sort gate)” value was “low polyreactivity”. With “QVLLQESGGGLVQAGGSLRLSCAASGTISTDIRMGWYRLAPGKEREFVASIDGCSTTYYADSVKGRFTISRDNAKNTVYLQMNSLKPEDTEMYYCAAREATEFYLYYWGQGTQVTVSS” the “polyreactivity (PSR sort gate)” value was “low polyreactivity”. With “QVLLVDSGGGLVHAGGIHRLSCHASVGIFSWYDMGLYRQAPGKERELVAAISWSGGSTYYAYSVKGRFTISRDNAKNTVYLQMNSLKPEDTAVYYCAAYTADYYDYWGQGTQVTVSS” the “polyreactivity (PSR sort gate)” value was “high polyreactivity”. With “QVLLVEAGRGLVQAGGSLRLSCAASGSIVVGYAMGCYRQAPGKERELVATISYSGDSTYYADSVKGRFTISRDNAKNTVYLQMNSLNPEDSAVYYCATESNGSPYKGDYWGQGTQVTVSS” the “polyreactivity (PSR sort gate)” value was “low polyreactivity”. In the case of “QVLLVESGGGLVQAGGSLRISCAASGRISSRNAMGWYRQAPGKERELVAGITSGGSTNYADSLKGRFTISRDNAKNTVYLQMNSLKPEDTAVYYCAKRSRTYRYGYDYWGQGTQVTVSS”, the “polyreactivity (PSR sort gate)” value is reported as “high polyreactivity”. With “QVLLVESGGGLVQAGGSLRLICAASGSIFGVYAMGWFRQAAGKDRELVAAISLSGTSTYYADSVKGRFTISRDNAKNTVYLQMNSLKAEDTAVYYCAAPWRLFSLYDYWGQGTQVTVSS” the “polyreactivity (PSR sort gate)” value was “low polyreactivity”. For “QVLLVESGGGLVQAGGSLRLSCAASGFIFYLNGMGWYRQAPGKERELVAAISGRGGRTYYADSVKGRFTISRDNAKNTVYLQMNSLIPEDTAVYYCAAQYVPSRYGYWGQGTQVTVSS”, the “polyreactivity (PSR sort gate)” value was “high polyreactivity”. In the case of “QVLLVESGGGLVQAGGSLRLSCAASGFTFGTNAMVWYRQAPGKERELVAAISSRGGSTYYADSVKGRFTISRDNAKNTVYLLMNSLNPEDTAVYYCARRVARRQHEYGYWGQGTQVTVSS”, the “polyreactivity (PSR sort gate)” value is reported as “high polyreactivity”. In the case of “QVLLVESGGGLVQAGGSLRLSCASSGNTFYVNVMGWYRQAPGKEREFVAAISTRGVSTSYADSVKGRYTISRDNAKNTVYLDMNTLKPEDTAVYYCAASFRRPQPKGTTYGYWGQGTQVTVSS”, the “polyreactivity (PSR sort gate)” value is reported as “high polyreactivity”. For “QVLLVESGGGLVQAGGSLRLSFAASGITFYGYDMGWYRQATGKERELVAAITSDGITNYADSVKGRFTISRDNAKNTVYLQMNSLKPEDTAVYYCAADVSFYRRYEWYYYWGQGTQVTVSS”, the “polyreactivity (PSR sort gate)” value was “low polyreactivity”. In the case of “QVLLVESGGGLVQAGGSLSISCAASGSTFGYYPMGWYRQAPGKEREFVAAISSRDGSTFYADSVQGRFTISRDNAKNTVYLQMNSLKPEDTAVYYCAKVFFHTPIVPEYDYWGQGTQVTVSS”, the “polyreactivity (PSR sort gate)” value is reported as “low polyreactivity”. For “QVLLVESGRVLVQAGGSLRLSCAASVSIFANYAMARYIQAPGKERELVASITSSARRTFYADSVKGRFTISRDNAKNTVYLQMNSLKPEVTAVYYCAAKHRRRTVSTRYDDWGQGTQGTVSS”, the “polyreactivity (PSR sort gate)” value was “high polyreactivity”. In the case of “QVLRVDSGGGLVQAGGSLRLSCAASGSIFGFYARGWDRQAPGTERELVAAITFSGGSTDYTDSVKGRFTISSDNAKNTVYLQMNSLKTEDTSVYYCADRGYAIYSYWYYEPYDYWGQGTQVTVSS”, the “polyreactivity (PSR sort gate)” value is reported as “high polyreactivity”. With “QVNLVESGGGLVQAGGSLRLSCAASGLTFARNAMGWYSQAPGKERELVASITSVGRTNYADSVKGRFTISRDNAKNTVYLEMNSLKPEDTAVYFCGAKPSWHGVYYWGQGTQVTVSS” the “polyreactivity (PSR sort gate)” value was “low polyreactivity”. In the case of “QVNLVESGGVSVQAGGSLRLSCAASGLIFDKYAMGWYRQAPGKERELVAAITRSSGTTYYADSVKGRFTISRDNAKNTVYLLLISVTPEDTAVYYCPAPFIWGYWGVGYYYWGQGTHVTVSS”, the “polyreactivity (PSR sort gate)” value is reported as “low polyreactivity”. In the case of “QVNLVETGGGLVQAVCSLRLSCAASGSIFGIYTMGWYRQAPGKERELVAAINSGGSTIYADSVKGRFTISRDNAKNTVYLQMNSLKPEDSAVYYWIAYIHPPGPRVYSREYDYWGQGTQLTVSS”, the “polyreactivity (PSR sort gate)” value is reported as “low polyreactivity”. For “QVNLVYSAGGLVQAGGILRLSCTASGCTFYYNAMGWYRQEPGKVREVVARISRSGGSTYEDSVKGRFTISRDNAKNTVYLPMNSLKPEDTAVYYCNADAYGTPEFTSYAVSYDLWGQGTQVTVSS”, the “polyreactivity (PSR sort gate)” value was “low polyreactivity”. In the case of “QVPLVESGGGLVQAGGILRLSCAASGRTFRYNVMGCYRQAPGKERELVASISRISGSTYYADSVKGRFTISRDNAKNTVYLQMNSLKPEDTAVYYCAATVKLKHYPYVGFGYWGQGTQVTVSS”, the “polyreactivity (PSR sort gate)” value is reported as “high polyreactivity”. In the case of “QVPLVESGGGLVQAGGRLRLRCAASAFTFDSYAMGWNRQAPGKERELVAAITWSGGSTYSADSVKGRFTISRDNAKNTVYLQMNSLQPEDTAVYYCNVYRYDGDYWGQGTQVPVSS”, the “polyreactivity (PSR sort gate)” value is reported as “high polyreactivity”. With “QVPLVESGGGLVQAGGSLRLSCAASGGIFYSYAMGWYRQAPGKERELVPAIRTNGGTTYYADSVKGRFTISRDNAKNTVYLQLNSLKQEDTAVYYCDALPGSYYDRGEYDYWGQGTQVTVSS” the “polyreactivity (PSR sort gate)” value was “low polyreactivity”. For “QVPLVESGGGLVQAGGSLRLSCAASGLIFTGYAMGWYRQAPGKEREVVAAITSAGSTNYADSVKGRFTISRDNAKNTVYLQMNSLKPEDTAVYYCGASRTTTFSWYYLYYLVSKYYYWGQGTQVTVSS”, the “polyreactivity (PSR sort gate)” value was “low polyreactivity”. With “QVPLVESGGGLVQAGGSLRLSCAASGLTVSSYAMGWYRQAPGKERELVAVFSRTGGSTYYADSVKGRFTISRDNAKNTVYLQMNSLKPEDTAVYYCAARSYNGWRYDSWGQGTQVTVSS” the “polyreactivity (PSR sort gate)” value was “high polyreactivity”. With “QVPLVESGGGLVQAGGSLRLSCAASGSICWSYAMGWYRQAPGTERELVASITRSGGSTYYADSVKGRFTISRDYAKNSLYLQLNSLKPEETAVYYCNARRTTRWGSSKYEYDYWGQATQVTVSS” the “polyreactivity (PSR sort gate)” value was “high polyreactivity”. With “QVPLVESGGGLVQAGGSLRLSCAASGSIFRNYALGWYRQAPGKERELVAGITQRGGRTYYADSVKGRFTSSRDNAKNTVYLQLNSLKPEDTAVYYCAASYRGVPEYDSWGQGTQVTVSS” the “polyreactivity (PSR sort gate)” value was “high polyreactivity”. For “QVPLVESGGGLVQSGGSLRISCAASGSIFAPNAMGWYRQAPGKERELVAAITSGGSTDYADYVKGRFTISRDNAKNTVYLQMNRLKPEDTAVYFCAKGYVPYAIFDYWGQATQVTVSS”, the “polyreactivity (PSR sort gate)” value was “low polyreactivity”. With “QVQDVESGGGLVQAGGSLRLSCAASGRTIDPNAMGWYRQAPGKERELVAAITRTGVRTYYADSVKGRFTISRDNAKNTVYLQMNSLKPEDTAVYYCNRYGARSNDYWGQATQVTVSS” the “polyreactivity (PSR sort gate)” value was “low polyreactivity”. For “QVQFVESGGGLVKAGGSLRLSCAASGYTFGRYAMGWYRQAPGKERELVAAITKSGGPTSYADSVKGRFTISRDNAKNTVYLQMNSLKPEDTAVYYCNKVLFQPYWVVYATGDYWGQGTQVTVSS”, the “polyreactivity (PSR sort gate)” value was “high polyreactivity”. For “QVQGVESGGGLVQAGGSLRLSCAAAGFTFGYYAMGWYRQAPGTERELVAGISWGGTRTYYADSVKGRFTISRDNAKNTVYLQLNSLKPEDTAVYYCAAESILGYDYWGQGTQVTVSS”, the “polyreactivity (PSR sort gate)” value was “high polyreactivity”. For “QVQHDESGGCLVQAGGSLRLSCAASGITFILYDMGWYREAPGKVRELVASITSGGSTDYADSVKGRFTISRDNAKNTVYLQMNSLKPEDTAVYYCAARYVYPYWYGDYYWGQGTQVTVSS”, the “polyreactivity (PSR sort gate)” value was “low polyreactivity”. For “QVQHEESAGGLVQAGGSLRLSCAASGSTIHPYSMGWSRQAPGKERELVAAITWGGGSTYYADSVKGRFTISRDNAKNTVYLQMNSLKPEDTAVYYCNSYTLYWPDYDYWGQGTQVTVSS”, the “polyreactivity (PSR sort gate)” value was “low polyreactivity”. In the case of “QVQHEESAGGLVQAGGSLRVSCAASGIIFYDYAMGWYRQAAGKERELVAAITSVGSTNYADSVKGRFTISRDYAKNTVYLQMISLKPDDTAVYYCDAEVYVPDYFQHIFDVEYEYWGQGTQVTVSS”, the “polyreactivity (PSR sort gate)” value is reported as “low polyreactivity”. In the case of “QVQHEESGGGLVQAGGRLRLSCAASGRTFFSNAMGWYRQAPGKERELVAAISNGDNTYYADSVKGRFTISRDNAKNTVYLQMNSLKPEDTAVYYCATAYPEWAVWGYDYWGQGTQVTVSS”, the “polyreactivity (PSR sort gate)” value is reported as “low polyreactivity”. With “QVQHEESGGGLVQAGGSLRLSCAASGITINFYDMGRYRQARGKERELGAAITASGGGSTYYADSVKGRFTISRDNAKNTVYLQMNSLKPEYTAVYYCNADSTGSFYTFDYWGQGTQVTVSS” the “polyreactivity (PSR sort gate)” value was “low polyreactivity”. With “QVQHVASGGGLVQAGGSLRLSCAASGNIFRYYTMGWYRQAPGKERELVATISYADSVKGRFTISRDNAKNTVYLQMNSLKPEDTAVYYWNAVFAPWDKQDYPYDYDYWGQGTQVTVSS” the “polyreactivity (PSR sort gate)” value was “low polyreactivity”. With “QVQHVDSAGGLVQAGGSLRLSCAASGSTFAPNAMGWYRQAPGKERELVAAISFRGVRTYYADSVKGRFTISRDNAKNTVYLQMNCLKPEDTAVYYCNKRVQRRNKPGAYNYEYWGQGTQVTVSS” the “polyreactivity (PSR sort gate)” value was “high polyreactivity”. With “QVQHVDSGGGLVQAAGSLRLSCAASGRTFGVYAMGWYRQAPGKERELVATITSVDRTNYADSVKGRFTISRENAKNTVYLLMNSLKPDDTAVYYCADVGRGPRYFYWGQGTQVTVSS” the “polyreactivity (PSR sort gate)” value was “high polyreactivity”. In the case of “QVQHVDSGGGLVQTGGSLLLSCAAYGRTFCVNDMGWYRQAAGKEREFVAAITWRGDSTYYADSVKGRFTISRDNAKNTVYLQMNSLKPEDSAVYYCNADVISLYDHPDYLYLFDYWGQGTQVTVSS”, the “polyreactivity (PSR sort gate)” value is reported as “low polyreactivity”. With “QVQHVDSVGGLVQAGRSLRLICAASGSTFTSYTKGWYRQAPLKERELVDRITRGGGSTYYADSVKGRFTISRDNAKNTVYLQMNSLKQEDTAVYYCAKHVVGSAYYSWGQGTQVTVSS” the “polyreactivity (PSR sort gate)” value was “low polyreactivity”. In the case of “QVQHVESAAGLVQAGGSLRLSCDPSGIIFGRYAMGLYRHAPGKEREFVAAITWSGGSTYYADSVKGRFTISRDNAKNTVYLQMNSLKPEDTAVYYCAADTWYRYDYWGQGTQVTVSS”, the “polyreactivity (PSR sort gate)” value is reported as “low polyreactivity”.
